The numbers were not newly measured in article PMC10601247, which cites them from elsewhere.

In series [1] the target is flotillin-2 (Homo sapiens) (UniProt Q14254). Put plainly: SPR.
Series [2] deals with flotillin-1 (Homo sapiens) (UniProt O75955). The series is described as follows: SPR. Background: SPR reads the build-up and loss of mass on a sensor chip optically.
Sequence of UniProt O75955 (O75955 whole entry): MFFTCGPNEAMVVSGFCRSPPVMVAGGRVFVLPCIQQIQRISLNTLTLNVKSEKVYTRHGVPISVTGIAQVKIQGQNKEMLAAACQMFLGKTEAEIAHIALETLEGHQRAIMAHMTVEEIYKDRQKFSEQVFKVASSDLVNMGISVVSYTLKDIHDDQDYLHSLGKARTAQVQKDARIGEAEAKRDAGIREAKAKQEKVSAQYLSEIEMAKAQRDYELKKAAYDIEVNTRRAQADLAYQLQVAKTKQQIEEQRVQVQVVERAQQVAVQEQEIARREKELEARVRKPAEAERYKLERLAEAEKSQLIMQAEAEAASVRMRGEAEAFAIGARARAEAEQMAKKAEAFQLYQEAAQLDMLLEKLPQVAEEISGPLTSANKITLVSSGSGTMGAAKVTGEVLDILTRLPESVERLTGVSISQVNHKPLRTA

Sequence of UniProt Q14254 (Q14254 2-428): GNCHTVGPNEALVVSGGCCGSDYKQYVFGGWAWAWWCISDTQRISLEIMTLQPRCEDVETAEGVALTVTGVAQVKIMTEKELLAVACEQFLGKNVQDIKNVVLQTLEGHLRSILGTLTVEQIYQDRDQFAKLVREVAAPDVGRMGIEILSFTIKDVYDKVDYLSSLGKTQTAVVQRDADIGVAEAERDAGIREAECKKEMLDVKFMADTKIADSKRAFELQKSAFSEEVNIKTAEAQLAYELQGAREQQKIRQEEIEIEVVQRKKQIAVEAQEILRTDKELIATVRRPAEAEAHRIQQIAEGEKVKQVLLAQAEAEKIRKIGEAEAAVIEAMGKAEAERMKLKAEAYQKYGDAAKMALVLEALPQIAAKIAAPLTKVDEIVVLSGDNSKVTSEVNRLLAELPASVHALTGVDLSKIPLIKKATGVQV

As a reminder, the Kd is the constant that tells how readily two partners part at equilibrium. In the case of MPP1 (from UniProt Q00013), the values for the Kd in series [1] and in series [2] were 31 nM and 23 nM, respectively.
